Measurements: US11225653B2, “Methods and compounds for reducing threonyl-tRNA synthetase activity” (University of Vermont and State Agricultural College, priority 2012, dated 2022)
Positions count from the first letter of the chain named. In names and notes the source's numbering stands. Entries after “also recorded” stand apart in the source; their conditions may differ.

B1: L567V TARS: BC194-resistant (borrelidin-resistant) L567V mutant of human TARS (protein, UniProt P26639 1-723, looked up, variant L567V)
Threonine--tRNA ligase 1, …: MFEEKASSPSGKMGGEEKPIGAGEEKQKEGGKKKNKEGSGDGGRAELNPWPEYIYTRLEMYNILKAEHDSILAEKAEKDSKPIKVTLPDGKQVDAESWKTTPYQIACGISQGLADNTVIAKVNNVVWDLDRPLEEDCTLELLKFEDEEAQAVYWHSSAHIMGEAMERVYGGCLCYGPPIENGFYYDMYLEEGGVSSNDFSSLEALCKKIIKEKQAFERLEVKKETLLAMFKYNKFKCRILNEKVNTPTTTVYRCGPLIDLCRGPHVRHTGKIKALKIHKNSSTYWEGKADMETLQRIYGISFPDPKMLKEWEKFQEEAKNRDHRKIGRDQELYFFHELSPGSCFFLPKGAYIYNALIEFIRSEYRKRGFQEVVTPNIFNSRLWMTSGHWQHYSENMFSFEVEKELFALKPMNCPGHCLMFDHRPRSWRELPLRLADFGVLHRNELSGALTGLTRVRRFQQDDAHIFCAMEQIEDEIKGCLDFLRTVYSVFGFSFKLNLSTRPEKFLGDIEVWDQAEKQLENSLNEFGEKWELNSGDGAFYGPKIDIQIKDAIGRYHQCATIQLDFQVPIRFNLTYVSHDGDDKKRPVIVHRAILGSVERMIAILTENYGGKWPFWLSPRQVMVVPVGPTCDEYAQKVRQQFHDAKFMADIDLDPGCTLNKKIRNAQLAQYNFILVVGEKEKISGTVNIRTRDNKVHGERTISETIERLQQLKEFRSKQAEEEF
B2: R442A TARS: aminoacylation-deficient mutant of hTARS, active site Arg442 substituted with alanine (protein, UniProt P26639 1-723, looked up, variant R442A)
Threonine--tRNA ligase 1, …: B1 Threonine--tRNA ligase 1, … with R442A, V567L
B3: E. coli ThrRS: bacterial (E. coli) threonyl-tRNA synthetase (protein, UniProt P0A8M3 1-642, looked up)
Threonine--tRNA ligase: MPVITLPDGSQRHYDHAVSPMDVALDIGPGLAKACIAGRVNGELVDACDLIENDAQLSIITAKDEEGLEIIRHSCAHLLGHAIKQLWPHTKMAIGPVIDNGFYYDVDLDRTLTQEDVEALEKRMHELAEKNYDVIKKKVSWHEARETFANRGESYKVSILDENIAHDDKPGLYFHEEYVDMCRGPHVPNMRFCHHFKLMKTAGAYWRGDSNNKMLQRIYGTAWADKKALNAYLQRLEEAAKRDHRKIGKQLDLYHMQEEAPGMVFWHNDGWTIFRELEVFVRSKLKEYQYQEVKGPFMMDRVLWEKTGHWDNYKDAMFTTSSENREYCIKPMNCPGHVQIFNQGLKSYRDLPLRMAEFGSCHRNEPSGSLHGLMRVRGFTQDDAHIFCTEEQIRDEVNGCIRLVYDMYSTFGFEKIVVKLSTRPEKRIGSDEMWDRAEADLAVALEENNIPFEYQLGEGAFYGPKIEFTLYDCLDRAWQCGTVQLDFSLPSRLSASYVGEDNERKVPVMIHRAILGSMERFIGILTEEFAGFFPTWLAPVQVVIMNITDSQSEYVNELTQKLSNAGIRVKADLRNEKIGFKIREHTLRRVPYMLVCGDKEVESGKVAVRTRRGKDLGSMDVNEVIEKLQQEIRSRSLKQLEE

How the values were obtained:
HUVECs = experiment: Quantitative RT-PCR of TARS mRNA; type: cell-based, human; conditions: HUVECs exposed to 50 ng/ml VEGF or TNF-α
Description: Quantitative RT-PCR—Total RNA was extracted from cells using the RNeasy column protocol and cDNA was generated using an Omniscript reverse transcriptase assay according to the manufacturer's instructions (Qiagen, Frederick, Md.). Primers and probes for TARS and β2-microglobulin were Assays-on-Demand (Applied Biosystems, [Life Technologies, Carlsbad, Calif.]). RT-qPCR was performed using an ABI prism 7700 Sequence Detection System (Applied Biosystems). The relative quantity of mRNA level was determined using the comparative CT (ΔΔCT) method using β2-microglobulin to normalize mRNA level (Cassavaugh, Hale et al. 2011).

[1] = tested on: chorioallantoic membrane (CAM); experiment: Chick chorioallantoic membrane (CAM) assay; type: in vivo, chicken; conditions: for vessel formation / vascularization on the CAM after applied protein: purified protein applied daily to sponge, scored over 72 h
Description: Chick Chorioallantoic Membrane Assay-Fertilized chicken eggs (Sunrise Farms, Catskill, N.Y.) day 1-2 post-laying were incubated in a humidified incubator at 37° C. for 72 h. Cleaned eggs were cracked and plated in a sterile 10 cm^2 tissue culture-treated dish and incubated at 37° C. for another 7 days. On developmental day 10, 1 mm^3 sterile gelatin sponge pieces (Surgifoam®; Johnson & Johnson Wound Management, Somerville, N.J.) were placed within the outer one-third of the membrane between large vessels. 40 μg/ml human bFGF and 2 μg/mL human VEGF were used as pro-angiogenic control compounds; 100 μg/mL retinoic acid (Sigma-Aldrich, St. Louis, Mo.) diluted in phosphate-buffered saline (PBS) was used as an angiostatic control. All compounds were applied in 10 μl to the CAM every 24 h for 72 h. Images were taken using a Leica MZ6 stereomicroscope every 24 h. Compounds were scored according to a modified version of Intensity Scoring as previously described (Ribatti, Nico et al. 2006). Briefly, each experimental condition was given a blinded score from 0-5 based on the change in the extent of vessel convergence and formation in proximity to the sponge from day 0 to day 3. Total score is averaged individual experimental condition scores from at least 15 replicates.
Fertilized chicken embryos were cultured ex-ova and, starting at developmental day 10, agents were applied daily to gelfoam sponges on the CAM. Images were recorded daily over 72 h and scored blindly according to a modified version Intensity Scoring as previously described (Ribatti, Nico et al. 2006). Additional details regarding methods are provided in the Methods and Materials section of Example 1.

human TARS [2] = experiment: Steady state aminoacylation assay; type: biochemical; conditions: purified protein
Description: Steady State Aminoacylation Assay-The aminoacylation activities of the TARS constructs were determined using modifications to established procedures ([…] et al 2008). Briefly, reaction mixtures consisted of 20 mM Tris-HCl pH 8.0, 100 mM KCl, 10 mM MgCl2, 1 mM dithiothreitol, 2 mM ATP, 2.5 U pyrophosphatase (Roche), 80 μM threonine, 20 μM [14C]-threonine, and 5 μM of E. coli or human […]. Reactions were initiated with the addition of 0.25-0.75 μM TARS and run at 37° C. Aliquots were taken at varying time points and spotted onto Whatmann 3MM paper filters pre-soaked in 5% trichloroacetic acid (TCA). Upon completion, the filters were washed 3 times in excess TCA, once in 95% ethanol, and dried under a heating lamp. The formation of […] was detected by scintillation counter and the activity determined by linear regression of […] formed per active site per unit time.

human TARS [3] = experiment: GTPase assay (GTP hydrolysis); type: biochemical; conditions: 2 mM GTP
human TARS [4] = experiment: Ap4G formation assay; type: biochemical; conditions: 2 mM ATP, 2 mM threonine, 2 mM GTP
human TARS [5] = experiment: Ap4A formation assay; type: biochemical; conditions: 5 μM enzyme, 2 mM threonine, 2 mM ATP
Description: TARS purification and active site determination were performed as previously described (Williams, Mirando et al., 2013). TARS non-canonical catalytic activities were characterized using modifications from published methods (Guo, Chong et al. 2009). For Ap4A reactions 5 μM of wildtype TARS or R442A TARS were incubated for 10 minutes on ice with 2 mM threonine, and 10 μM BC194 or borrelidin as indicated in FIG. 17C. Reactions were initiated using 2 mM ATP with trace amounts of [α-^32P]-ATP as label. At specific time points aliquots were quenched in 3 volumes of 0.1% SDS, 400 mM sodium acetate and resolved on polyethyleneimine-cellulose plates by thin-layer chromatography (TLC) in 3 M NH4 (SO4)2 and 2% EDTA. Radioactive counts were identified by phosphorimaging and products quantified as fractions of total ATP added. The quantitation of product was normalized to take into account the fact that each Ap4A molecule has two equivalents of radioactive phosphorus.

Row | Molecule | TARS mRNA / transcription (HUVECs) | sensitivity of protein-stimulated CAM vessel formation to BC194 ([1]; protein applied together with BC194) | vessel formation / vascularization on the CAM after applied protein [1] | aminoacylation activity of the protein (human TARS [2]) | GTP hydrolysis (human TARS [3]) | rate of Ap4G formation (human TARS [4]) | production of Ap4A (human TARS [5])
1 | TNF-α | neither VEGF nor TNF-α induced an increase; also recorded: do not induce TARS transcription |  |  |  |  |  | 
2 | VEGF | neither VEGF nor TNF-α induced an increase; also recorded: do not induce TARS transcription |  |  |  |  |  | 
3 | B1 |  | not inhibited by application of BC194 | stimulated vessel formation | activity is not compromised |  |  | 
4 | B2 |  |  | virtually indistinguishable from wild type | essentially no aminoacylation activity; also recorded: virtually negligible aminoacylation function | 0.2137 GDP/active site/min | not catalyzed; also recorded: blocked | no appreciable activity; also recorded: blocked
5 | B3 |  |  |  |  | not | 0.5612 Ap4G/active site/min | 0.5612 Ap4A/active site/min
